Source: US20260139013A1 (VIB VZW, published 2026)

Target: the molecule itself
Experiment: cryo-EM structure of the self-assembled fiber (subunit to subunit)

B1: Ena1B-HI-Rubredoxin (other)
chain: MGNCSTNLSCCANGQKTIVQDKVCIDWTAAATAAIIYADNISQDIYASGYLKVDTGTGPVTIVFYSGGVTGTAVETIVVATGSSASFTVRRFDTVTILGGGKYVCTVCGYEYDPAEGDPDNGVKPGTSFDDLPADWVCPVCGAPKSEFEAAGAAETGEFCMTIRYTLS
notes: It was made in E. coli and studied as a self-assembled helical fiber of many identical subunits; The rubredoxin centre carried mostly zinc and some iron; also called Ena-HI-Rubredoxin; Ena1B-Rubredoxin-HI
B1: binds.
